Laboratory results as given in the Human Domainome abundance scans (Beltran et al. 2025).

B1: Proto-oncogene vav, residues 782 to 842; numbered along this chain, P15498 (parent)
chain: KYFGTAKARYDFCARDRSELSLKEGDIIKILNKKGQQGWWRGEIYGRVGWFPANYVEEDYS

Variants of: B1
Test: abundance fitness (aPCA) (normalised: wild type 0, dead -1); higher = more abundant; growth selection in yeast, the domain comes from the species named
Conditions: Homo sapiens

Abundance fitness, by site and new letter:
K34: M -0.22 | C -0.117 | H -0.03 | E 0.068 | Q 0.031 | G -0.051 | L -0.268 | V -0.072 | T -0.158 | I -0.424 | F -0.363 | D -0.054 | P -0.165 | R 0.019 | A -0.013 | S -0.05 | N 0.068 | Y -0.216
G25: F -0.786 | Y -1.02 | C -0.895 | H -0.975 | M -0.742 | Q -0.957 | L -0.904 | S -0.818 | W -0.498 | T -0.97 | R -0.667 | P -0.615 | D -0.518 | N -0.675 | V -1.21
G42: L -0.788 | E -0.809 | D -0.385 | M -0.748 | T -0.825 | R -0.398 | Q -0.963 | F -1.02 | Y -0.618 | A -0.523 | I -0.832 | P -0.916 | V -0.837 | S -0.787
K33: D -0.743 | N -0.681 | F -0.593 | V -0.41 | W -0.693 | S -0.576 | G -0.734 | R -0.089 | E -0.46 | M -0.804 | H -0.68 | T -0.377 | Y -0.475 | Q -0.478 | C -0.732 | A -0.711 | P -0.41 | L -0.929 | I -0.44
W40: C -0.833 | R -0.948 | P -0.876 | I -0.385 | G -0.707 | L -0.306 | A -1.13 | D -0.747 | Q -0.876 | S -0.785 | Y -0.182 | K -0.362 | F -0.303 | E -0.924 | V -0.648 | M -0.428
N32: Q 0.009 | F -0.118 | A -0.031 | V -0.223 | Y -0.168 | L -0.292 | T -0.131 | S 0.082 | H -0.02 | D 0.162 | G -0.075 | I -0.363 | R -0.255 | M -0.242 | K -0.221 | E 0.123
L31: Y -0.188 | T -0.133 | A -0.816 | M -0.366 | D -0.415 | N -0.649 | H -0.285 | F -0.46 | C -0.412 | E -0.644 | Q -0.525 | P -0.988 | S -0.618 | W -0.251 | R -0.461 | G -0.773 | I -0.004 | V -0.285 | K -0.392
W39: H -0.513 | N -0.674 | R -0.241 | F -0.354 | I -0.408 | M -0.028 | S -0.599 | G -0.978 | T -0.385 | P -0.807 | E -0.795 | L -0.268 | Q -0.317 | A -0.614
R41: E 0.018 | K 0.008 | L 0.031 | M 0.024 | S -0.359 | H -0.113 | W -0.123 | F 0.081 | N -0.375 | I -0.463 | P -0.588 | G -0.691 | C -0.002 | Q 0.129 | T -0.633 | A -0.364
G38: A -0.619 | L -0.55 | I -0.911 | N -0.309 | E -0.438 | C -0.725 | Q -0.186 | H -0.418 | F -0.82 | V -0.51 | R -0.539 | M -0.795 | W -0.928 | P -0.944 | K -0.248 | D -0.265 | T -0.69
I28: T -0.315 | W -0.591 | L -0.412 | V 0.039 | A -0.662 | S -0.792 | D -0.944 | F -0.816 | Q -0.834 | P -0.811 | R -1.11 | C -0.436 | M -0.593 | G -0.935
E43: H -0.993 | N -0.36 | R -0.31 | S -0.126 | C -0.343 | F -0.825 | Y -0.682 | D -0.559 | Q -0.019 | V -0.411 | A -0.197 | T -0.367 | K -0.155 | G -0.702 | W -0.782 | L -0.525 | M -0.389
Q37: I -0.292 | M -0.105 | A -0.044 | P 0.039 | R -0.048 | C -0.02 | D -0.008 | S 0.02 | E 0.033 | Y 0.048 | K -0.022 | W -0.189 | G 0.029 | L -0.106 | H 0.037 | F -0.186 | T -0.135 | V -0.024 | N -0.086
I27: G -0.704 | M -0.192 | Y -0.294 | E -0.154 | C -0.194 | F -0.44 | R -0.21 | P -0.557 | K -0.22 | W -0.324 | L -0.198 | D -0.151 | H -0.14 | A -0.331 | V 0.065 | S -0.276
I30: W -0.871 | L -0.319 | Y -0.74 | P -0.814 | M -0.555 | F -0.776 | E -0.876 | V 0.006 | G -0.675 | S -0.662 | R -0.634 | Q -0.833 | N -0.77 | A -0.552
K29: S -0.092 | T -0.103 | V -0.376 | I -0.391 | F -0.483 | Y -0.217 | M -0.095 | P -0.462 | A -0.225 | D -0.229 | H -0.082 | C -0.467 | L -0.068 | G -0.281 | Q -0.265 | E -0.493 | W -0.4 | N -0.033
Q36: E -0.005 | A -0.07 | P 0.074 | S -0.195 | H 0.016 | Y -0.219 | K 0.132 | F -0.166 | W -0.156 | C -0.258 | N -0.248 | M 0.055 | L -0.045 | D -0.073 | G -0.192 | I -0.084 | T -0.076
Y45: E 0.103 | A 0.106 | D 0.147
G35: H -0.428 | Y -0.643 | I -0.334 | L -0.469 | C -0.165 | P -0.23 | T -0.16 | N -0.327 | E -0.165 | V -0.412 | D -0.155 | K -0.204 | Q -0.304 | A -0.346 | S -0.104 | W -0.6 | R -0.287 | M -0.324
D26: E -0.172 | N -0.45 | A -0.493 | I -0.663 | M -0.401 | R -0.996 | T -0.777 | V -0.559 | L -0.814 | G -0.948 | W -0.8 | Q -0.278 | K -0.964 | C -0.737 | H -0.941 | P -1.15 | Y -0.472
I44: M -0.292 | P -0.556 | A 0.062 | R -0.145 | G -0.619 | T -0.027 | H -0.025 | W -0.556 | Q -0.484 | N 0.085 | F -0.257 | L 0.089 | V 0.044 | Y -0.425 | D -0.486 | C 0.042 | K -0.239
